Here are results for three molecules from US7919262B2, “14-3-3 proteins for diagnosis of Parkinson's disease” (The UAB Research Foundation, priority 2007, dated 2011).

Assay [1] deals with SK-N-BE(2)-M17 (M17) cells. Kind of assay: Rotenone toxicity in stably transfected cell lines, LDH release. The assay is classed as cell-based. The conditions noted are these: stable overexpression, 48 hours; for protection against rotenone toxicity (LDH release): rotenone at varying concentrations. The protocol: Cell lines stably-transfected with either 14-3-3θ or empty vector were treated with varying concentrations of rotenone (0-25 μM) for 24 hours (FIG. 6A), 30 hours (FIG. 6B), or 48 hours (FIG. 6C). Cell death was assayed by LDH release into the culture media. LDH release into media was normalized to total LDH release for each well. […] Rater was blind to experimental condition. n=8 for each experimental condition. *p<0.05, ***p<0.001 (Bonferroni's multiple comparison test).
(§1) M17 cell lines stably-transfected with either a 14-3-3 isoform or empty vector were treated with varying concentrations of rotenone (0-25 μM) for 48 hours. Cell death was assayed by LDH release into the culture media. LDH release into media was normalized to total LDH release for each well. […] Results reflect two to three independent experiments with at least two replicates per experiment. *p<0.05, **p<0.01, ***p<0.001 (Bonferroni's multiple comparison test).
Additional studies were performed to evaluate the effect of 14-3-3 polypeptide isoforms in mammalian cells. In these studies, cDNA clones for the 14-3-3 polypeptide β, γ, ε, η, θ, and σ isoforms were subcloned into the mammalian expression vector pcDNA 3.1/V5/His (Invitrogen). The polypeptide expressed from this vector contains the particular 14-3-3 isoform with a V5 and a His6 tag at the C-terminal end. […] SK-N-BE(2)-M17 (M17) cells, a dopaminergic-producing human neuroblastoma cell line, were transfected with each isoform or empty vector using Superfect, and stably-transfected cells were selected for in the presence of G418.
The M17 14-3-3θ clones were examined for their resistance to rotenone (0-25 μM). M17 cell lines stably transfected with either 14-3-3θ or empty vector were treated with rotenone for 24 (FIG. 6A), 30 (FIG. 6B) or 48 hours (FIG. 6C). Cell death was assayed by […] (LDH) release into the culture media using the LDH assay kit from Roche. LDH release into media was normalized to total LDH release for each well. Results reflect three independent experiments with at least two replicates per experiment.
Stable M17 cell lines overexpressing these other isoforms were treated with rotenone at varying concentrations, and then cell death was assayed at 48 hours by LDH release. […]
Background: Release of lactate dehydrogenase indicates damage to the cell membrane.

In the next assay the test system is M17 cells. The experiment in a line: MPP+ toxicity in stably transfected cell lines, LDH release. The following applies: stable overexpression; MPP+ 0-10 mM; 24 hours. The assay is classed as cell-based, human. Here is the method: as §1, with “Cell” for “M17 cell”, “MPP+” for “rotenone (0-25 μM)”, “24” for “48”, “well. Lines overexpressing 14-3-3θ (FIG. 9A), 14-3-3ε (FIG. 9B), or 14-3-3γ (FIG. 9C) were more resistant to MPP+ in a dose-dependent manner compared to control stable cells.” for “well.”, “experiment.” for “experiment. *p<0.05,”
The 14-3-3 expressing M17 clones were also tested for resistance to the neurotoxin 1-methyl-4-phenylpyridinium ion (MPP+), which is a metalbolite of 1-methyl-4-phenyl-1,2,3,6-tetrahydropyridine (MPTP). M17 cells expressing the 14-3-3 isoforms were prepared as described. M17 cells were treated with MPP+ (0-10 mM) for 24 hours (FIGS. 9A-G). Cell death was assayed by LDH release into the culture media as described above.
(§2) Primers against each of the human 14-3-3 isoforms were designed using Primer3. Primers against 14-3-3β (NM_018753) were 5′ […] 3′ (forward; SEQ ID NO. 9) and 5′ […] 3′ (reverse; SEQ ID NO. 10). Primers against 14-3-3ε (NM_009536) were 5′ […] 3′ (forward; SEQ ID NO. 11) and 5′ […] 3′ (reverse; SEQ ID NO. 12). Primers against 14-3-3γ (NM_018871) were 5′ […] 3′ (forward; SEQ ID NO. 13) and 5′ […] 3′ (reverse; SEQ ID NO. 14). Primers against 14-3-3η (NM_011738) were 5′ […] 3′ (forward; SEQ ID NO. 15) and 5′ […] 3′ (reverse; SEQ ID NO. 16). Primers against 14-3-3θ (NM_011739) were 5′ […] 3′ (forward; SEQ ID NO. 17) and 5′ […] 3′ (reverse; SEQ ID NO. 18). Primers against 14-3-3σ (NM_018754) were 5′ […] 3′ (forward; SEQ ID NO. 19) and 5′ […] 3′ (reverse; SEQ ID NO. 20). Primers against 14-3-3ζ(NM_011740) were 5′ […] 3′ (forward; SEQ ID NO. 21) and 5′ […] 3′ (reverse; SEQ ID NO. 22). Primers against GAPDH were 5′ tggtgaagcaggeatctga 3′ (forward; SEQ ID NO. 23) and 5′ […] 3′ (reverse; SEQ ID NO. 24) and were used to normalize PCR results. • α-syn aggregation assay H4 cells were transfected with synphilin, α-syn/green fluorescent protein (synT), and either empty vector control or a 14-3-3 isoform using Superfect transfection reagent (Qiagen). 24 hours after transfection, cells were fixed with 4% paraformaldehyde and immunostained with a monoclonal antibody against α-syn (BD Transduction) and a secondary Alexa 488-conjugated goat anti-mouse antibody (Molecular Probes). All cells stained for α-syn were scored as positive or negative for α-syn aggregates, with the rater blind to experimental condition. • α-syn toxicity assay H4 cells were transfected with α-syn and either empty vector control or a 14-3-3 isoform using Superfect transfection reagent (Qiagen). 24 hours after transfection, toxicity was measured by the amount of adenylate kinase released into the media using the ToxiLight™ kit (Cambrex). • Creation of stable cell lines Each 14-3-3 isoform was subcloned into the mammalian expression vector mcDNA3.1/V5-His (Invitrogen). BE(2)-M17 cells were transfected with each isoform or empty vector using Superfect, and stably-transfected cells were selected for in the presence of G418. […] Protein concentrations of supernatants were determined by the bicinchoninic acid assay (BCA; Pierce, Rockford, Ill.). […]

A further assay relates to H4 cells. The experiment in a line: α-syn toxicity assay, adenylate kinase released into the media. It is filed as cell-based. The conditions noted are these: co-transfected with wildtype α-syn; 24 hours after transfection; vs empty vector. Here is the method: Briefly, H4 cells were transfected with wildtype α-syn and each of the 14-3-3 polypeptide isoforms or empty vector controls as discussed above. Twenty-four hours after transfection, cell death was assayed by adenylate kinase activity in the media (n=4, *p<0.05, **p<0.01, ***p<0.001).
as §2, with “3′ (reverse; SEQ ID NO. 24) and were used to normalize PCR results. • α-syn aggregation assay H4 cells were transfected with synphilin, α-syn/green fluorescent protein (synT), and either empty vector control or a 14-3-3 isoform using Superfect transfection reagent (Qiagen). 24 hours after transfection, cells were fixed with 4% paraformaldehyde and immunostained with a monoclonal antibody against α-syn (BD Transduction) and a secondary Alexa 488-conjugated goat anti-mouse antibody (Molecular Probes).” left out, “(Invitrogen).” for “(Invitrogen). BE(2)-M17 cells were transfected with each isoform or empty vector using Superfect, and stably-transfected cells were selected for in the presence of G418.”

B1: 14-3-3β: 14-3-3 polypeptide β isoform, overexpressed from expression vector (protein, UniProt P31946 1-246, looked up)
14-3-3 protein beta/alpha: MTMDKSELVQKAKLAEQAERYDDMAAAMKAVTEQGHELSNEERNLLSVAYKNVVGARRSSWRVISSIEQKTERNEKKQQMGKEYREKIEAELQDICNDVLELLDKYLIPNATQPESKVFYLKMKGDYFRYLSEVASGDNKQTTVSNSQQAYQEAFEISKKEMQPTHPIRLGLALNFSVFYYEILNSPEKACSLAKTAFDEAIAELDTLNEESYKDSTLIMQLLRDNLTLWTSENQGDEGDAGEGEN
For B1, in assay [1] (1 μM rotenone, LDH release), the “rotenone-induced cell death, % of that in control cells” value was 75%. In addition, the “protection against rotenone toxicity (LDH release)” value in assay [1] is given as “some protection”. Further, the “protection against MPP+ toxicity (LDH release)” value in the assay with M17 cells was “did not show any significant protection”.

B2: 14-3-3η: 14-3-3 polypeptide η isoform, overexpressed from expression vector (protein, UniProt Q04917 2-246, looked up)
14-3-3 protein eta: GDREQLLQRARLAEQAERYDDMASAMKAVTELNEPLSNEDRNLLSVAYKNVVGARRSSWRVISSIEQKTMADGNEKKLEKVKAYREKIEKELETVCNDVLSLLDKFLIKNCNDFQYESKVFYLKMKGDYYRYLAEVASGEKKNSVVEASEAAYKEAFEISKEQMQPTHPIRLGLALNFSVFYYEIQNAPEQACLLAKQAFDDAIAELDTLNEDSYKDSTLIMQLLRDNLTLWTSDQQDEEAGEGN
For B2, in assay [1], the “protection against rotenone toxicity (LDH release)” value was “did not provide any protection”.

B3: 14-3-3σ: 14-3-3 polypeptide σ isoform, overexpressed from expression vector (protein, UniProt P31947 1-248, looked up)
14-3-3 protein sigma: MERASLIQKAKLAEQAERYEDMAAFMKGAVEKGEELSCEERNLLSVAYKNVVGGQRAAWRVLSSIEQKSNEEGSEEKGPEVREYREKVETELQGVCDTVLGLLDSHLIKEAGDAESRVFYLKMKGDYYRYLAEVATGDDKKRIIDSARSAYQEAMDISKKEMPPTNPIRLGLALNFSVFHYEIANSPEEAISLAKTTFDEAMADLHTLSEDSYKDSTLIMQLLRDNLTLWTADNAGEEGGEAPQEPQS
Take B3: in the assay on H4 cells, the “effect on α-syn dependent cell death (adenylate kinase activity in the media)” value is “protective effects”. Further, the “protection against rotenone toxicity (LDH release)” value in assay [1] is “did not provide any protection”.
